Data from patent US20100028342A1.
pEC50, pIC50, pKd: −log10 of the molar value.

Tests used:
[1] = target: recombinant extracellular portion of human IGF-IR (soluble IGF-IR) (human) (UniProt P08069); test: competition: cold IGF-II against radiolabeled IGF-I on immobilized IGF-IR; cold IGF-II as competitor
[2] = target: recombinant extracellular portion of human IGF-IR (soluble IGF-IR) (human) (UniProt P08069); test: ratio of plate binding: ED50 on human IGF-IR against the highest concentration tested on IR
[3] = target: recombinant extracellular portion of human IGF-IR (soluble IGF-IR) (human) (UniProt P08069); test: competition: blocking of radiolabeled IGF-I binding to immobilized IGF-IR
[4] = target: recombinant extracellular portion of human IGF-IR (soluble IGF-IR) (human) (UniProt P08069); test: BIAcore 3000, soluble IGF-IR immobilized on the sensor chip, full IgG in solution
[5] = target: recombinant extracellular portion of human IGF-IR (soluble IGF-IR) (human) (UniProt P08069); test: ligand blocking of IGF-I binding to IGF-IR, column Blocking (EC50)
[6] = target: recombinant extracellular portion of human IGF-IR (soluble IGF-IR) (human) (UniProt P08069); test: human IGF-IR-based ELISA, column Binding (ED50)
[7] = target: recombinant extracellular portion of human IGF-IR (soluble IGF-IR) (human) (UniProt P08069); test: human IGF-IR binding ELISA, repeated with the same sample of A12

Chain of antibody A12 (fully human IgG1 anti-IGF-IR antibody) (VH): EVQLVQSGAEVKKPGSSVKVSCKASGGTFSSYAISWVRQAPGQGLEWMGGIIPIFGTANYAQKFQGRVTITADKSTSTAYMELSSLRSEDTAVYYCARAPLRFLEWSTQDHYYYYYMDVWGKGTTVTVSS
Chain of antibody A12 (fully human IgG1 anti-IGF-IR antibody) (VL): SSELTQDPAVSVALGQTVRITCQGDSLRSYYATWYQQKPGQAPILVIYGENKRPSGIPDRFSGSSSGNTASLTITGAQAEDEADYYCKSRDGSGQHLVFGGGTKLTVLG

pIC50 [1]	selectivity for IGF-IR in comparison to IR [2] [fold]	pIC50 [3]	pKd [4]	koff [4] [s⁻¹]	kon [4] [M⁻¹ s⁻¹]	pEC50 [5]	pEC50 [6]	pEC50 [7]	Substance
8.22	–	–	–	–	–	–	–	–	IGF-II (from UniProt P01344 25-91) (ligand)
–	> 3000	9.00	10.39	3e-05	720000	9.00 to 9.22	9.52	9.30 to 9.52	antibody A12 (fully human IgG1 anti-IGF-IR antibody)
